Data on 22 molecules can be found in EP4647443A1 (Max-Planck-Gesellschaft zur Förderung der Wissenschaften …, dated 2025).

The target in experiment [1] is T1, S. aureus gamma-hemolysin component A (HlgA) (Staphylococcus aureus, UniProt P0A071 30-309).
T1 sequence: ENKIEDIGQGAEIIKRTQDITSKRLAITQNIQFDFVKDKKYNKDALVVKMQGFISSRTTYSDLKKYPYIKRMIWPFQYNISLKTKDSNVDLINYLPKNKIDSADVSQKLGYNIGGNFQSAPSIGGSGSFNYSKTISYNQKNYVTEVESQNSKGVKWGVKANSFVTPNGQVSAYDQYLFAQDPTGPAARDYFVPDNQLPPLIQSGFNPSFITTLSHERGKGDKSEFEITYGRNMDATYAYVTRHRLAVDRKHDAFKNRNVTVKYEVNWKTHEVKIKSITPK
Briefly: BLI, biotinylated VHH on streptavidin sensor, HlgA in solution.

The target of experiment [2] is T2, S. aureus gamma-hemolysin component B (HlgB) (Staphylococcus aureus, UniProt P0A075 27-325).
T2 sequence: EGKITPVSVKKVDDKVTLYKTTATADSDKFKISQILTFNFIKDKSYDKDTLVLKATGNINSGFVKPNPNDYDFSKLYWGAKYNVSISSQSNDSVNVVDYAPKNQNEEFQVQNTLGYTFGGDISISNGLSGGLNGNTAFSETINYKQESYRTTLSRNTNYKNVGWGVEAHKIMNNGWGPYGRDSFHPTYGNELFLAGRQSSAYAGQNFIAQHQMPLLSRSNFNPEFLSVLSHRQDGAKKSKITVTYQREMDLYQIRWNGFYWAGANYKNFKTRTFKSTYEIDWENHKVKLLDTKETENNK
Nature of the experiment: BLI, biotinylated VHH on streptavidin sensor, HlgB in solution.

The target of experiment [3] is T3, S. aureus gamma-hemolysin component C (HlgC) (Staphylococcus aureus, UniProt Q07227 30-315).
T3 sequence: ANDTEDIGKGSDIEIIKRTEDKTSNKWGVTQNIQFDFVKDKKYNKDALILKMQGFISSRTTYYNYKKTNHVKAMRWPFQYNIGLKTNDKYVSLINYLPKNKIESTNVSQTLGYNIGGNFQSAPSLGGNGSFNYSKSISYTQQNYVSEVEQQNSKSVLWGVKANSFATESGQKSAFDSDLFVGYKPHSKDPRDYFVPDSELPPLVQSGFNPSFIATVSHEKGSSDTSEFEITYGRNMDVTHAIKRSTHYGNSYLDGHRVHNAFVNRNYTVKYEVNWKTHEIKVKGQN
Briefly: BLI, biotinylated VHH on streptavidin sensor, HlgC in solution. In general terms: Biolayer interferometry detects binding as a change in optical thickness at a sensor tip.

B1: Bm31A04 (VHH)
VHH: QVQLVQSGGGLVQPGGSLRLSCAASESISNIYVMGWFRQAPGKQRELVAAITSSNNTNYADSVKGRFTISRDNAKNTVYLQMNSLKPEDTAVYYCNADWGLGGYSDYGEYDYWGQGTQVTVSS
Turning to B1, the Kd (usually the constant that tells how readily two partners part at equilibrium) in experiment [1] amounted to 0.06 nM.

B2: Bm29C02 (VHH)
VHH: QVQLVESGGGLVQPGGSLRLSCTASGFTLDDWAIGWFRQAPGKEREGVSCTSSRERSSYYRDSVKGRFTISRDSTSNTVYLQMNELTLEDTAVYYCAADPQPYPCSLGQLGRYTTWGQGTQVTVSS
notes: also called anti-HlgB VHH Bm29C02
In experiment [2], B2 showed a Kd of 0.01 nM.

B3: Bm29E06 (VHH)
VHH: QVQLVESGGGLVQPGGSLRLSCTASGVSLYDFAVGWFRQAPGKEREGVSCSSSRDRSEYYRDSVKGRFDIVRDNLKNIIYLQMDNLTIEDTAVYFCAADSQPYPCSLGSLERYDSWGQGTQVTVSS
As for B3, the affinity in experiment [2], expressed as Kd, was 0.03 nM.

B4: Bm29F05 (VHH)
VHH: QVQLVESGGGLVQPGGSLRLSCTASGVSLYDFAVGWWRQAPGKEREGVSCTSSRDRSEYYRDSVKGRFTIVRDNLKNTIYLQMDSLTIEDTAVYFCAADSQPYPCSLGSLERYDSWGQGIQVTVSS
Consider B4, for which the Kd in experiment [2] worked out at 0.02 nM.

B5: Bm31F09 (VHH)
VHH: QVQLVESGGALVQPGGSLRLSCAASGFTFDDYVMSWVRQAPGTGLEWVSSIHTASSDTYYADSVKDRFTISTDNAKNTLYLQMNSLKPEDTAVYYCAADKAPLTIATMTRDEYDYWGQGTQVTVSS
As to B5, in experiment [1], the affinity, expressed as Kd, was 0.09 nM.

B6: Bm31G12 (VHH)
VHH: QVQLVESGGGLVQPGGSLRLSCAAAGFTVDDYVMSWVRQVPGKGREWVSSIHSYSSDTYYADSVKGRFTISTDNAKNTLYLQMNSLKPEDTAVYYCAADKDPLTIATMTRYEYDYWGQGTQVTVSS
Molecule B6 displayed a Kd in experiment [1] of 0.025 nM.

B7: Bm31A09 (VHH)
VHH: QVQLVQSGGGLVQAGGSLRLSCAASGSTGSIYVMGWFRQAPGKQRELVASITRGEGSANYADSVKGRFTISRDNAKNTLYLQMNSLKPEDTAVYYCHADTGLGDYSDYAPHGYKYDYWGQGTQVTVSS
Molecule B7 registered a Kd in experiment [1] of 0.05 nM.

B8: Bm31D02 (VHH)
VHH: QVQLVESGGGLVQAGGSLRLSCAASGSTGSIYVMGWFRQAPGKQRELVASITRGEGSANYADSVKGRFTISRDNAKNTLYLQMNSLKPEDTAVYYCHADTGLGDYSDYAPHGYKYDYWGQGTQVTVSS
B8: in experiment [1], the Kd turned out to be 0.07 nM.

B9: Bm31A08 (VHH)
VHH: QVQLVESGGGLAQPGGSLTLSCAASGVVWSKYVMSWVRQVPEKGFEWVSGIKSDGSDTYYADSVKGRFTVSGDLAKKTVYLQLNSLKPEDTALYYCVLEYGTSWPPRVEEYDYWGQGTQVTVSS
For the molecule B9, in experiment [1], the dissociation constant Kd is ≤ 0.01 nM.

B10: Bm29H04 (VHH)
VHH: QVQLVESGGGLVQPGGSLRLSCTASGVSLDDFAIGWFRQAPGKEREGVSCSSSRDRSEYYRDSVKGRFTISRDSQKNTVDLQMNSLTIEDTAVYYCAADPQPYPCSVGSLDRYNSWGQGTLVTVSS
For the molecule B10, in experiment [2], the Kd worked out at 0.06 nM.

B11: Bm32B07 (VHH)
VHH: QVQLVESGGGLVQTGGSLRLSCATSGRISSIYAMPWFRQAPGKEREFVAAISWHTDLAYYADSVKGRFTISKDNAKNTVYLQMNSLKPEDTAVYYCNIPSKEEYDRNYYYPTGGSWGQGTQVTVSS
In experiment [3], B11 displayed a Kd of 0.045 nM.

B12: Bm32A03 (VHH)
VHH: QVQLVESGGALVQTGGSLRLSCVTSGSISSIYAMPWFRQAPGKEREFVAAISWHTNLAYYADSVKGRFTISKDNAKNTVYLQMDSLKPEDTATYYCNVPSKEEYDRTSYYPTGGSWGQGTQVTVSS
Molecule B12 yielded a dissociation constant (Kd) in experiment [3] of 0.025 nM. This Kd lies about 1.8-fold lower than the previous one.

B13: Bm32D01 (VHH)
VHH: QVQLVESGGGLVQTGGSLRLSCATSGRISSIYAMPWFRQAPGKEREFVAAISWHTDLTYYADSVKDRFTISKDNAKATVYLQMNNLQPEDTAVYYCNVPSKEQYDRTSYYPTGGSWGQGTQVTVSS
Regarding B13, the Kd in experiment [3] is 0.03 nM.

B14: Bm29D07 (VHH)
VHH: QVQLVESGGGLVQPGGSLRLSCTASSIIVSYYAIGWFRQAPGKGREGVSRITVPAGNLYYADSVKGRFSITRDDVKNTVYLQMNSFQVEDTATYYCAVSYGDSWVDPSYVDHWGQGIQVTVSS
As to B14, the dissociation constant (Kd) in experiment [2] was ≤ 0.01 nM.

B15: Bm29B04 (VHH)
VHH: QVQLVESGGGLVQAGGSLRLSCAASGFTFDDYVIGWFRQAPGKEREAVACISNGDGVANVPNSMKGRFTISSDSAKNTVHLRADSLKADDTGVYYCAAVKERLCVHEGMEYWGKGTQVTVSS
As for B15, the Kd in experiment [2] is ≤ 0.01 nM.

B16: Bm29B05 (VHH)
VHH: QVQLVESGGGLVQAGGSLRLSCAASGFTFDDYVIGWFRQAPGKEREAVACISNGDGVTNYPNSMRGRFTISSDSAKNTVYLQTDSLKPDDTGVYYCATAKERLCVQGGMEYWGKGTLVTVSS
On to B16, for which, in experiment [2], the Kd was ≤ 0.01 nM.

B17: Bm31G04 (VHH)
VHH: QVQLVESGGGLVQPGGSLRLSCAASGITFTFYDMGWYRQAPGKQRELVATISISSSTTYADSVKGRFTISRDNAKNTVYLQMNSLKPEDTAVYYCNAQHVDSDYLAGYDYFGQGTQVTVSS
In experiment [1], B17 yielded a Kd of 0.025 nM.

B18: Bm31G03 (VHH)
VHH: QVQLVESGGGLVQAGGSLRLSCAASGIIFSFYDMGWYRQAPGKQREVVATISISGRTTYADSVKGRFTISRDDAKNTVYLQMNSLKPEDTAVYICNAQHVDSDYLAGYDYFGQGTQVTVSS
Turning to B18, the affinity in experiment [1], expressed as Kd, was 0.015 nM.

B19: Bm31D04 (VHH)
VHH: QVQLVESGGGLVQPGGSLRLSCAASGIIFDFYDMGWYRQAPGKQRELVAGISISGSTTYADSVKGRFTISRDNAKNTIYLQMNSLKPEDTAVYYCNAHHVDSDYLRGYDYFGQGTQVTVSS
In turn, B19 gave a Kd in experiment [1] of 0.05 nM.

B20: Bm31B04 (VHH)
VHH: QVQLVESGGGLVQPGGSLRLSCAASGSSFSIYGMSWYRQAPGNQRELVALINVGDWTTYADSVKGRFTISRDSAKNTVYLQMNSLKPEDTAVYYCKADLSVSGSSFIRTYWGQGTQVTVSS
As to B20, in experiment [1], the dissociation constant (Kd) was ≤ 0.01 nM.

B21: Bm32A08 (VHH)
VHH: QVQLVESGGGLVQAGGSLRVSCAASGDWFIINSMAWFRQAPGKQREQVATISHGGIPRYADSVKGRFTISRDNSKGAVYLQMNNLKSDDTAMYVCAAGGLDYGFPDPTPEEFDYWGRGTQVTVSS
B21 showed a Kd in experiment [3] of 0.045 nM.

B22: Bm32F03 (VHH)
VHH: QVQLVESGGGLVQAGGSLRVSCAASGDWFIINSMAWFRQAPGKQREQVATISHGGIPRYADSVKGRFTISRDDSKDAVYLQMNNLKSDDTAMYVCAAGGLDYGFPDPTPEEFDYWGRGTQVTVSS
In experiment [3], B22 displayed a Kd of 0.85 nM.
